Measurements taken from publication PMC10540216, “Activity Guided Azide-methyllysine Photo-trapping for Substrate Profiling of Lysine Demethylases” (Journal of the American Chemical Society, 2023).
Entries after “also recorded” stand apart in the source; their conditions may differ.

B1: G9a: full-length G9a methyltransferase expressed in HEK293T cells (protein, UniProt Q96KQ7 1-1210, looked up)
chain: MAAAAGAAAAAAAEGEAPAEMGALLLEKETRGATERVHGSLGDTPRSEETLPKATPDSLEPAGPSSPASVTVTVGDEGADTPVGATPLIGDESENLEGDGDLRGGRILLGHATKSFPSSPSKGGSCPSRAKMSMTGAGKSPPSVQSLAMRLLSMPGAQGAAAAGSEPPPATTSPEGQPKVHRARKTMSKPGNGQPPVPEKRPPEIQHFRMSDDVHSLGKVTSDLAKRRKLNSGGGLSEELGSARRSGEVTLTKGDPGSLEEWETVVGDDFSLYYDSYSVDERVDSDSKSEVEALTEQLSEEEEEEEEEEEEEEEEEEEEEEEEDEESGNQSDRSGSSGRRKAKKKWRKDSPWVKPSRKRRKREPPRAKEPRGVNGVGSSGPSEYMEVPLGSLELPSEGTLSPNHAGVSNDTSSLETERGFEELPLCSCRMEAPKIDRISERAGHKCMATESVDGELSGCNAAILKRETMRPSSRVALMVLCETHRARMVKHHCCPGCGYFCTAGTFLECHPDFRVAHRFHKACVSQLNGMVFCPHCGEDASEAQEVTIPRGDGVTPPAGTAAPAPPPLSQDVPGRADTSQPSARMRGHGEPRRPPCDPLADTIDSSGPSLTLPNGGCLSAVGLPLGPGREALEKALVIQESERRKKLRFHPRQLYLSVKQGELQKVILMLLDNLDPNFQSDQQSKRTPLHAAAQKGSVEICHVLLQAGANINAVDKQQRTPLMEAVVNNHLEVARYMVQRGGCVYSKEEDGSTCLHHAAKIGNLEMVSLLLSTGQVDVNAQDSGGWTPIIWAAEHKHIEVIRMLLTRGADVTLTDNEENICLHWASFTGSAAIAEVLLNARCDLHAVNYHGDTPLHIAARESYHDCVLLFLSRGANPELRNKEGDTAWDLTPERSDVWFALQLNRKLRLGVGNRAIRTEKIICRDVARGYENVPIPCVNGVDGEPCPEDYKYISENCETSTMNIDRNITHLQHCTCVDDCSSSNCLCGQLSIRCWYDKDGRLLQEFNKIEPPLIFECNQACSCWRNCKNRVVQSGIKVRLQLYRTAKMGWGVRALQTIPQGTFICEYVGELISDAEADVREDDSYLFDLDNKDGEVYCIDARYYGNISRFINHLCDPNIIPVRVFMLHQDLRFPRIAFFSSRDIRTGEELGFDYGDRFWDIKSKYFTCQCGSEKCKHSAEAIALEQSRLARLDPHPELLPELGSLPPVNT
modifications: full-length
notes: full-length G9a methyltransferase expressed in HEK293T cells
B2: KDM4A: full-length wild-type KDM4A overexpressed in HEK293T cells (protein, UniProt O75164 1-1064, looked up)
chain: MASESETLNPSARIMTFYPTMEEFRNFSRYIAYIESQGAHRAGLAKVVPPKEWKPRASYDDIDDLVIPAPIQQLVTGQSGLFTQYNIQKKAMTVREFRKIANSDKYCTPRYSEFEELERKYWKNLTFNPPIYGADVNGTLYEKHVDEWNIGRLRTILDLVEKESGITIEGVNTPYLYFGMWKTSFAWHTEDMDLYSINYLHFGEPKSWYSVPPEHGKRLERLAKGFFPGSAQSCEAFLRHKMTLISPLMLKKYGIPFDKVTQEAGEFMITFPYGYHAGFNHGFNCAESTNFATRRWIEYGKQAVLCSCRKDMVKISMDVFVRKFQPERYKLWKAGKDNTVIDHTLPTPEAAEFLKESELPPRAGNEEECPEEDMEGVEDGEEGDLKTSLAKHRIGTKRHRVCLEIPQEVSQSELFPKEDLSSEQYEMTECPAALAPVRPTHSSVRQVEDGLTFPDYSDSTEVKFEELKNVKLEEEDEEEEQAAAALDLSVNPASVGGRLVFSGSKKKSSSSLGSGSSRDSISSDSETSEPLSCRAQGQTGVLTVHSYAKGDGRVTVGEPCTRKKGSAARSFSERELAEVADEYMFSLEENKKSKGRRQPLSKLPRHHPLVLQECVSDDETSEQLTPEEEAEETEAWAKPLSQLWQNRPPNFEAEKEFNETMAQQAPHCAVCMIFQTYHQVEFGGFNQNCGNASDLAPQKQRTKPLIPEMCFTSTGCSTDINLSTPYLEEDGTSILVSCKKCSVRVHASCYGVPPAKASEDWMCSRCSANALEEDCCLCSLRGGALQRANDDRWVHVSCAVAILEARFVNIAERSPVDVSKIPLPRFKLKCIFCKKRRKRTAGCCVQCSHGRCPTAFHVSCAQAAGVMMQPDDWPFVVFITCFRHKIPNLERAKGALQSITAGQKVISKHKNGRFYQCEVVRLTTETFYEVNFDDGSFSDNLYPEDIVSQDCLQFGPPAEGEVVQVRWTDGQVYGAKFVASHPIQMYQVEFEDGSQLVVKRDDVYTLDEELPKRVKSRLSVASDMRFNEIFTEKEVKQEKKRQRVINSRYREDYIEPALYRAIME
modifications: full-length

Columns and labels:
Assay type in all cases: cell-based, human
[1] = test system: eIF4A3 trimethylation in HEK293T cells; assay: Immunoprecipitation of eIF4A3 from HEK293T cells and Kme3 immunoblot; settings: eIF4A3 IP, pan-Kme3 immunoblot, vs control vector or control siRNA
CBX1-eIF4A3 interaction [2] = assay: Interactome pull-down of eIF4A3 using recombinant CBX1 from HEK293T nuclear extracts; settings: 6xHis CBX1, Ni-NTA beads
CBX1-eIF4A3 interaction [3] = assay: Immunoprecipitation using CBX1 antibody from HEK293T cells, eIF4A3 immunoblot; settings: vs control vector
Description: concentration. The samples were then heated to 65°C for 15 minutes and loaded into a 4-12% polyacrylamide gel for Western blotting.
22. Immunoprecipitation using eIF4A3 and CBX1 antibodies […]
Then 4 mg of nuclear extracts were added and left mixing overnight at 4°C. The following day, the beads were pelleted, and the supernatant was removed.
The beads were washed twice with 50 mM Tris pH 7.5, 100 mM KCl, 0.1% Triton X. Laemmli dye (4X) was added to “elution buffer” from the Protein A Dynabead kit for a final 1X concentration. Each sample received 60 µL of the denaturing elution solution and was then incubated at 65°C for 15 minutes. The beads were pelleted on the magnetic rack and the supernatants were collected to perform Western blots. […]
Each microcentrifuge tube received an CBX1 antibody mixture containing 10 µL antibody (ProteinTech cat. # 10241-2-AP). The antibodies […]
were incubated with the beads using gentle agitation for 1 hour at 4°C. The beads were then washed 2x with conjugation buffer (200 µl of 20 mM sodium phosphate, 0.15M NaCl). BS3 crosslinking solution (250 µl of 5 mM BS3 in conjugation buffer) was added to each aliquot and incubated at room temperature for 20 minutes. The supernatant was removed and a second round of BS3 solution was administered for 5 minutes at room temperature. […]

| Molecule | eIF4A3 Kme3 level [1] | eIF4A3 enrichment by recombinant CBX1 pull-down (CBX1-eIF4A3 interaction [2]) | eIF4A3 enrichment by endogenous CBX1 (IP) (CBX1-eIF4A3 interaction [3]) |
| --- | --- | --- | --- |
| B1 | increased Kme3 compared to the control vector; also recorded: considerable increase in Kme3 on eIF4A3 | maximum enrichment of eIF4A3 | increased in G9a-transfected cells; also recorded: robust enrichment of eIF4A3 by CBX1 |
| B2 | significantly reduced the Kme3 level; also recorded: robustly deceases eIF4A3 methylation; also recorded: robust eIF4A3 demethylation | decreased the association | decreased in KDM4A-transfected cells; also recorded: reduced it compared to control vector-transfected cells |
